Source: US20110159003A1 (DOMANTIS, published 2011)

T1: human IL-4 (human, UniProt P05112 25-153, biotinylated in the RBA and on the Biacore chip)
T1 sequence (looked up): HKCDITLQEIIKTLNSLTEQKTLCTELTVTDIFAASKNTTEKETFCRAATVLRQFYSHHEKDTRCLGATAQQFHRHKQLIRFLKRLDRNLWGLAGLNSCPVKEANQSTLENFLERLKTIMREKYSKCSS


What was measured:
human IL-4 [1] = target: T1, human IL-4; assay: cell-based or functional assay
human IL-4 [2] = target: T1, human IL-4; assay: DOM9 RBA (IL-4 RBA), binder titrated
human IL-13 [3] = target: T2, human IL-13 (human, UniProt P35225 35-146, limits assumed, biotinylated on the Biacore chip); assay: Dom10 RBA (text: IL-13 sandwich ELISA), binder titrated
T2 construct: also called interleukin-13; biotinylated IL-13

[4] = target: variant IL-13 (R130Q) (human), P35225; assay: cell-based or functional assay
human IL-4 [5] = target: T1, human IL-4; assay: IL-4 RBA (ELISA), binder titrated; printed as potency
From the text: The wells were washed three times with 0.1% (v/v) Tween 20 in PBS, followed by three washes with PBS, before blocking with 2% (w/v) BSA in PBS. […] The reaction was stopped by the addition of HCl and the absorbance read at 450 nm.

human IL-13 [6] = target: T2, human IL-13; assay: IL-13 sandwich ELISA, binder titrated; printed as potency
Procedure: A MAXISORP™ plate (high protein binding ELISA plate, Nunc, Denmark) was coated overnight with 2.5 μg/ml coating antibody (Module Set, Bender MedSystems, Vienna, Austria), then washed once with 0.05% (v/v) Tween 20 in PBS before blocking with 0.5% (w/v) BSA 0.05% (v/v) Tween 20 in PBS. […] The plate was then incubated with TMB substrate (KPL, Gaithersburg, USA), and the reaction was stopped by the addition of HCl and the absorbance read at 450 nm.

T2 sequence (P35225 35-146 limits assumed): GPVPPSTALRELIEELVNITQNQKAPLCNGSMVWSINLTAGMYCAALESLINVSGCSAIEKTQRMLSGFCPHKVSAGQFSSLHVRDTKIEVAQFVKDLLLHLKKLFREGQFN
Chain of variant IL-13 (R130Q) (human), P35225 (P35225 35-146, stated change not applied): as the sequence (P35225 35-146 limits assumed) above

IC50 (human IL-4 [2]) | EC50 (human IL-13 [3]) | Binder | further results
6.91 nM | 62 nM | DOM10-213 TVAAPS-DOM9-155-78 (bispecific antibody, from a related filing, part only) DIQMTQSPSSLSASVGDRVTITCRASQAIPWGLNWYQQKPGKAPKLLIYDVSSLQSGVPSRFSGSGSGTDFTLTISSLQPEDFATYYCQQDIHIPMTFGQGTKVEIKRTVAAPSDIQMTQSPSSLSASVGDRVTITCRASRHIGDWLHWYQQKPGKAPKLLIAWASTLDSGVPSRFSGSGSGTDFTLTISSLQPEDFATYYCLQEGWGPPTFGQGTKVEIKR | 
8.18 nM | 4240 nM | DOM10-208-TVAAPS-DOM9-155-78 (bispecific antibody, from a related filing, part only) DIQMTQSPSSLSASVGDRVTITCRASSPITDGLAWYQQKPGKAPKLLIDTGSRLQSGVPSRFSGSGSGTDFTLTISSLQPEDFATYYCRQGAMGSYTFGQGTKVEIKRTVAAPSDIQMTQSPSSLSASVGDRVTITCRASRHIGDWLHWYQQKPGKAPKLLIAWASTLDSGVPSRFSGSGSGTDFTLTISSLQPEDFATYYCLQEGWGPPTFGQGTKVEIKR | 
12.5 nM |  | DOM10-224 TVAAPS-DOM9-155-78 (bispecific antibody, from a related filing, part only) DIQMTQSPSSLSASVGDRVTITCRASPNIAVDLAWYQQKPGKAPKLLIRGVSRLQSGVPSRFSGSGSGTDFTLTISSLQPEDFATYYCRQGAMGSYTFGQGTKVEIKRTVAAPSDIQMTQSPSSLSASVGDRVTITCRASRHIGDWLHWYQQKPGKAPKLLIAWASTLDSGVPSRFSGSGSGTDFTLTISSLQPEDFATYYCLQEGWGPPTFGQGTKVEIKR | 
6.65 nM | 10.8 nM | DOM10-215 TVAAPS-DOM9-155-78 (bispecific antibody, from a related filing, part only) DIQMTQSPSSLSASVGDRVTITCRASQNIFADLNWYQQKPGKAPKLLIYMGSRLQSGVPSRFSGSGSGTDFTLTISSLQPEDFATYYCQQDYKFPLTFGQGTKVEIKRTVAAPSDIQMTQSPSSLSASVGDRVTITCRASRHIGDWLHWYQQKPGKAPKLLIAWASTLDSGVPSRFSGSGSGTDFTLTISSLQPEDFATYYCLQEGWGPPTFGQGTKVEIKR | 

Second part, the binder before the results:

Binder | IC50 (human IL-4 [2]) | EC50 (human IL-13 [3]) | further results
DOM9-44-502 (other) VL: DIQMTQSPSSLSASVGDRVTITCRASQNINFWLRWYQQKPGKAPTLLIYDASRSQSGVPSRFSGSGSGTDFTLTISSLQPEDFATYYCQQDLMPPYTFGQGTKVEIKR |  |  | average inhibition of HDM induced PBMC proliferation at 100 nM dAb (human IL-4 [1]): 38%
DOM10-53-316 (protein) VH: GVQLLESGGGLVQPGGSLRLSCAASGFIFAWYDMGWARQAPGKGLEWVSSIDWHGEVTYYADSVKGRFTISRDNSKNTLYLQMNSLRAEDTAVYYCATAEDEPGYDYWGQGTLVTVSS |  |  | TF-1 proliferation IC50, variant IL-13 [4]: 0.52 nM
DOM9-112-22 (other) VH: EVQLLESWGGLVQPGGSLRLSCAASGFTFRNYGMAWVRQAPGKGLEWISWIDASGTETYYADPVKGRFTISRDNSKNTLYLQMNSLRAEDTAVYYCAKSLGRFDYWGQGTLVTVSS |  |  | average inhibition of HDM induced PBMC proliferation at 100 nM dAb (human IL-4 [1]): 23%
DOM10-176-535 (protein) VL: DIQMTQSPSSLSASVGDRVTITCRASQWIGPYLNWYQQKPGKAPKPLIYMGYWAPSGVPSRFSGSGSGTDFTLTISSLQPEDFATYYCQQDLYPPFTFGQGTKVEIKR |  |  | TF-1 proliferation IC50, variant IL-13 [4]: 7.8 nM
IgG:9-44-502×10-176-535 (bispecific antibody, V domains shown, not shown: a dimerising Fc or GST, IgG-like format from vector pDOM30 (heavy and light chain cassettes); also called dual specific IgG-like format) V domain 1: DIQMTQSPSSLSASVGDRVTITCRASQNINFWLRWYQQKPGKAPTLLIYDASRSQSGVPSRFSGSGSGTDFTLTISSLQPEDFATYYCQQDLMPPYTFGQGTKVEIKR V domain 2: DIQMTQSPSSLSASVGDRVTITCRASQWIGPYLNWYQQKPGKAPKPLIYMGYWAPSGVPSRFSGSGSGTDFTLTISSLQPEDFATYYCQQDLYPPFTFGQGTKVEIKR |  |  | IC50 (human IL-4 [5]): 13 nM; IC50 (human IL-13 [6]): 1 nM
